Results: article PMC8469728, “Molecular and Enzymatic Characterization of Flavonoid 3′-Hydroxylase of Malus × domestica” (Plants, 2021)

T1: CsCH3H (Cosmos sulphureus, UniProt D8KZE8)
T1 construct: recombinant, expressed in Saccharomyces cerevisiae INVSc1, microsomal preparation
T1 sequence (D8KZE8 1-512): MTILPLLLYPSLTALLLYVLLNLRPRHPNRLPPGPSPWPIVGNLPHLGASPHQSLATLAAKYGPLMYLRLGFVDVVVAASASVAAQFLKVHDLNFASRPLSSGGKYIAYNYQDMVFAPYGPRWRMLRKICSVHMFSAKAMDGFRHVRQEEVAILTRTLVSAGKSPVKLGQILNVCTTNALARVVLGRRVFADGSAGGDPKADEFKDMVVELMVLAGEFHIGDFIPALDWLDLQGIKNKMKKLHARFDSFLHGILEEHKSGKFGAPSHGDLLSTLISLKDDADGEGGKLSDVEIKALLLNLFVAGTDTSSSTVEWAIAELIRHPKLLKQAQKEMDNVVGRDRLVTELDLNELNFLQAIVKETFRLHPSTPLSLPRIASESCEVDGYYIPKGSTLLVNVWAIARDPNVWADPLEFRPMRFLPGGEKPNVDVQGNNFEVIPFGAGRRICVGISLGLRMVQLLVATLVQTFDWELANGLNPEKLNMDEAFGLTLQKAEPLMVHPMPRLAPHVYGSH


Columns and labels:
CsCH3H = molecular target: T1, CsCH3H; test: LC-MS/DAD detection of 3-hydroxyphloretin formed by yeast microsomes; assay type: biochemical; details: 10 µM substrate, 1.55 mM NADPH, 100 mM HEPES pH 7.5, 30 °C
[1] = substrate: O=c1c(O)c(-c2ccc(O)cc2)oc2cc(O)cc(O)c12; test: cells, lysate or membranes; assay type: biochemical, Malus domestica; details: 0.5 mM NADPH, Tris/HCl pH 6.5–6.75, 25 °C, labelled compound, pH 6.0
[2] = substrate: O=C1C[C@@H](c2ccc(O)cc2)Oc2cc(O)cc(O)c21; test: cells, lysate or membranes; assay type: biochemical, Malus domestica; details: 0.5 mM NADPH, Tris/HCl pH 6.5–6.75, 25 °C, labelled compound, pH 6.0
[3] = substrate: O=C1c2c(O)cc(O)cc2O[C@H](c2ccc(O)cc2)[C@H]1O; test: cells, lysate or membranes; assay type: biochemical, Malus domestica; details: 0.5 mM NADPH, Tris/HCl pH 6.5–6.75, 25 °C, labelled compound, pH 6.0

Molecule | LC-MS/DAD detection of 3-hydroxyphloretin formed by yeast microsomes (CsCH3H) | Km [1] | Vmax [1] | Km [2] | Vmax [2] | Km [3] | Vmax [3]
O=C(CCc1ccc(O)cc1)c1c(O)cc(O)cc1O [phloretin] | produced sufficient amounts of 3-hydroxyphloretin to be detected by the DAD |  |  |  |  |  | 
MdF3′HII (Malus domestica) (protein, full-length ORF, 511 residues, C-terminal Twin-Strep-tag, expressed in Saccharomyces cerevisiae INVSc1, microsomal preparation; differs from FJ919633 at residues 73 and 457) MFVLIFFTVVLAFFLYRLFAPGGSRHALPLPPGPKPWPVVGNLPHLGPVPHHSLAALARQYGPLMHLRLGFADVVVAASASVASQFLKTHDANFSSRPPNSGAKHLAYNYQDLVFAPYGPRWRMLRKISSVHLFSGKALDDLKHVRQEEVGVLAHGLASAGSKPVSLGQLLNVCTVNALGRVMVGRRLFGDGGGREDQKADEFKSMVVEMMVLAGVFNIGDFIPALEWLDLQGVAGKMKKLHKRFDAFLTAIVEDHKRSGEGKHVDMLTTLLSLTDDADGEGAKLTDTEIKALLLNMFTAGTDTSSSTVEWAIAELLRHPKILAQLQQELDQVVGRDRLVTESDLPNLTYLQAVIKETFRLHPSTPLSLPRMASESCEINGFHIPKGATLLVNVWAISRDPAQWSEPLEFRPERFLPGGEKPNVDVKGNDFEVIPFGAGRRICAGMTLGLRMVSLMTATLVHGFDWTLADGLTPEKLNMDEAYGLTLQRAAPLMVHPRNRLAPHAYNASSP |  | 0.20 ± 0.02 µM | 19.8 µM/min | 0.31 ± 0.10 µM | 30 µM/min | 0.31 ± 0.03 µM | 19.8 µM/min
MdF3′HI (Malus domestica; I211M) (protein, full-length ORF, 511 residues, C-terminal Twin-Strep-tag, expressed in Saccharomyces cerevisiae INVSc1, microsomal preparation; clone MH468788 has I211 and S224, differing from FJ919631 at both residues (M211 and P224 there)) MFVLIVFTVVFAFFLYRIFAPGGSRHSLPLPPGPKPWPVVGNLPHLGPVPHHSLAALARQYGPLMHLRLGFVDVVVAASASVASQFLKTHDANFSSRPPNSGAKHLAYNYQDLVFAPYGPRWRLLRKISSVHLFSGKALDDLKHVRQEEVGVLAHGLASAGSKPVNLAQLLNVCTVNALGRVMVGRRLFGNGMGGEDPKADEFKSMVVEMMVLAGVFNIGDFISSLEWLDLQGVAGKMKKLHKRFDAFLTAIVEEHKRSRGGKHVDMLTTLLSLKEDADGEGAKLTDTEIKALLLNMFTAGTDTSSSTVEWAIAELLRHPKILAQLQQELDQVVGRDRLVTESDLPNLTYLQAVIKETFRLHPSTPLSLPRMATESCEINGFHIPKGATLLVNVWAVSRDPDQWSEPLEFRPERFMSGGEKPNVDIRGNDFEVIPFGAGRRICAGMSLGLRMVSLMTATLVHGFDWTLADGLTPEKLNMDEAYGLTLQRAAPLMVHPRNRLAPHAYNASSS |  | 0.21 ± 0.07 µM | 21 µM/min | 2.11 ± 1.5 µM | 43.8 µM/min | 0.42 ± 0.06 µM | 28.2 µM/min
